# Patent publication EP3848397A1 (NANJING UMAB-BIOPHARMA CO., LTD., dated 2021)
# Read-outs that look alike come from different tables or passages of the source.
# T1: OX40 on Jurkat-OX40-NFκB-luciferase reporter cells (UniProt P43489 29-277)
# T1 sequence (looked up): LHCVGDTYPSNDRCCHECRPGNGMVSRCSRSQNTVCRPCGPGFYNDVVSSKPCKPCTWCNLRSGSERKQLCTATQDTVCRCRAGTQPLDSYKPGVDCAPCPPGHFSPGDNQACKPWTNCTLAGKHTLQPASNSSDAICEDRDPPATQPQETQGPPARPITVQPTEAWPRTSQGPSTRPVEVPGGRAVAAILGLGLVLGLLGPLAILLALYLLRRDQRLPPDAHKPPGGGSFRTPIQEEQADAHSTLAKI
# B1: MT01-C1 (antibody, human IgG1, V domains shown)
# VH: EVQLVQSGAEVKKPGESLKISCKASGYTFTSYVMHWLRQMPGKGLEWMGYINPYNDGTKYNEKFKGQVTISSDKSISTAYLQWSSLKASDTAMYYCANYYGSKFAMDYWGQGTMVTVSS
# VL: DIQMTQSPSSVSASVGDRVTITCRASQDISNYLSWYQQKPGGAVKLLIYYTSRLHSGVPSRFSGSGSGTDYTLTISSLQPEDFATYFCQQGITLPWTFGQGTKVEIK
# Tests used:
# Assay in all cases: cell-based or functional assay
# [1] = target: T1, OX40 on Jurkat-OX40-NFκB-luciferase …
# [2] = target: T1, OX40 on Jurkat-OX40-NFκB-luciferase …; remark: listed apart in the source
# [3] = target: T1, OX40 on Jurkat-OX40-NFκB-luciferase …; remark: listed apart in the source
binder,measurement,setting,value
B1,EC50 of NFκB-luciferase reporter activation (FcR-mediated),[1],0.0452 ng/mL
same,"Activation activity of OX40 signaling pathway, EC50",[2],0.178 nM
same,"Activation activity of OX40 signaling pathway, EC50",[3],0.325 nM
